The text below walks through data of article PMC12483565, “CBFβ-SMMHC–driven leukemogenesis requires enhanced RUNX1-DNA binding affinity in mice”.

In this assay the target is runt homology domain (RHD) of hRUNX1c (human). The experiment in a line: BLI; biotinylated RHD loaded on streptavidin biosensors; CBFβ, CBFβ-SMMHC or mutants in solution at varying concentrations (50-600 nM); Octet RED96e; 20 mM Tris-HCl pH 8.0, 100 mM KCl, 1 mM EDTA, 1 mM DTT, 0.02% Tween 20; global fit. (In BLI a coated tip is dipped into the sample, and binding shifts an interference pattern.)

For the substance CBFβ-SMMHC (from UniProt Q13951 1-165), the Kd (commonly the constant that tells how readily two partners part at equilibrium) was 0.013 µM. This lies in the double-digit nanomolar range. To “core-binding factor β (CBFβ) (from UniProt Q13951-2 1-187) (natural protein)” belongs 0.0647 µM.
